Data taken from article PMC8004701, “An Arabidopsis Oxalyl-CoA Decarboxylase, AtOXC, Is Important for Oxalate Catabolism in Plants” (International Journal of Molecular Sciences, 2021).

Biological target: the molecule itself
Test: SEC; Superdex 200 Increase 10/300 GL, 100 mM sodium phosphate pH 7.5, 100 mM NaCl, 10 mM beta-mercaptoethanol; standards aldolase (158 kDa) and conalbumin (75 kDa); AtOXC eluted at 13.0 mL

B1: Arabidopsis oxalyl-CoA decarboxylase (AtOXC), His-tagged (enzyme, Arabidopsis thaliana, UniProt Q9LF46 1-572, looked up)
chain: MADKSETTPPSIDGNVLVAKSLSHLGVTHMFGVVGIPVTSLASRAMALGIRFIAFHNEQSAGYAASAYGYLTGKPGILLTVSGPGCVHGLAGLSNAWVNTWPMVMISGSCDQRDVGRGDFQELDQIEAVKAFSKLSEKAKDVREIPDCVSRVLDRAVSGRPGGCYLDIPTDVLRQKISESEADKLVDEVERSRKEEPIRGSLRSEIESAVSLLRKAERPLIVFGKGAAYSRAEDELKKLVEITGIPFLPTPMGKGLLPDTHEFSATAARSLAIGKCDVALVVGARLNWLLHFGESPKWDKDVKFILVDVSEEEIELRKPHLGIVGDAKTVIGLLNREIKDDPFCLGKSNSWVESISKKAKENGEKMEIQLAKDVVPFNFLTPMRIIRDAILAVEGPSPVVVSEGANTMDVGRSVLVQKEPRTRLDAGTWGTMGVGLGYCIAAAVASPDRLVVAVEGDSGFGFSAMEVETLVRYNLAVVIIVFNNGGVYGGDRRGPEEISGPHKEDPAPTSFVPNAGYHKLIEAFGGKGYIVETPDELKSALAESFAARKPAVVNVIIDPFAGAESGRLQHKN
notes: Oxalyl-CoA decarboxylase AtOXC, Arabidopsis thaliana, locus At5g17380; full-length cDNA; monomer about 61.5 kDa; No removal of the tag is reported; also called His-AtOXC; His-tagged AtOXC; source: E. coli BLR (DE3), purified (nickel-nitriloacetic acid agarose, desalted on Sephadex G-25)
stoichiometry N: 2
